Measurements as given in patent publication US20240391997A1 (BRIGHTPATH BIOTHERAPEUTICS, published 2024).

B1: Hu149_83_scFv antibody (scFv, not shown: small tags and cut ends)
scFv: QVQLVQSGAEVKKPGASVKVSCKASGYTFTDYYMDWVRQAPGQGLEWLGYIYPNKGGTSYNQKFKGRVTMTTDKSTSTAYMELRSLRSDDTAVYYCARSGYGNYYTMDYWGQGTTVTVSSGGGGSGGGGSGGGGSGGGGSDIVMTQSQKFMSTSVGDRVSITCKASQSVGNNVAWYQQKPGQSPKLLIYYASNRYTGVPDRFTGSGSGTDFTLTISNMQSEDLADYFCQQHYSSPSTFGGGTKLEIK
notes: Secreted from E. coli with an N-terminal pelB leader (left out)
B2: Ch003-LA antibody (antibody, V domains shown)
VH: EVMLMESGGGLVKLGGSLKLSCAASGFTFSSYYMSWVRQTPEKRLEWVATISNSGGSIYYLDSVKDRFTISRDNAKNTLYLQMSSLNSEDTAVYYCARDPYYSNYVPMDYWGQGTSVTVSS
VL: SIVMTQTPKFMSTSVGDRVSVTCKASQYVDTYVAWYQQKPGQSPKPLIYSASTRHTGVPARFTGSGSGTDFTLTISNVQSEDLAEYFCAQYSSSPLTFGAGTKLELK
notes: IgG1_LALA type antibody (L234A and L235A in the Fc region of IgG1)

Tests used:
[1] = target: T1, human Tim-3 IgV domain (aa. 22-130) (human, UniProt Q8TDQ0 22-130); assay: gel filtration of the complex and X-ray crystallography, 2.11 angstrom
T1 construct: range 22-130

[2] = target: T2, biotinylated human Tim-3-Fc antigen (in-house preparation) (human, biotinylated); assay: competition ELISA: biotinylated human Tim-3-Fc premixed with the antibody, added to plate-bound human Galectin-9 (blocked ligand); streptavidin-HRP; Binding (%)
T2 construct: limits of the Tim-3 part not given

[3] = target: T2, biotinylated human Tim-3-Fc antigen …; assay: competition flow cytometry, biotinylated Tim-3-Fc premixed with antibody, binding to phosphatidylserine on apoptotic Jurkat cells (ligand not a protein)
[4] = target: T3, human Tim-3 expressed on cells (Jurkat cells stably expressing, Expi293 cells transiently expressing, … (human, UniProt Q8TDQ0 22-301)); assay: flow cytometry on activated human CD8 T cells, KD from MFI curve
T3 construct: whole, on cells; One entry for all cell-surface forms; the cell type is named under assay; also called human Tim-3 expressed on the cell membrane

[5] = target: T3, human Tim-3 expressed on cells (Jurkat …); assay: flow cytometry on activated human CD4 T cells, KD from MFI curve
[6] = target: T3, human Tim-3 expressed on cells (Jurkat …); assay: flow cytometry on Expi293 cells transiently expressing human Tim-3, KD from MFI curve
[7] = target: T3, human Tim-3 expressed on cells (Jurkat …); assay: flow cytometry on Jurkat cells stably expressing human Tim-3, KD from MFI curve

Row | binding result [1] | IC50 (read off the curve) [2] | IC50 [3] | Kd [4] | Kd [5] | Kd [6] | Kd [7] | Binder
1 | binds |  |  |  |  |  |  | B1
2 |  | ~0.5 nM | 9.91 nM | 0.112 nM | 0.105 nM | 0.891 nM | 0.0828 nM | B2
